Source: PMC10286459, “The development of an anti-cancer peptide M1-21 targeting transcription factor FOXM1” (Cell & Bioscience, 2023)

What was measured:
[1] = target: endogenous FOXM1 protein (human (endogenous in 293T and MDA-MB-231)) (UniProt Q08050)
[2] = target: endogenous FOXM1 protein (human (endogenous in 293T and MDA-MB-231)) (UniProt Q08050); remark: listed apart in the source
GFP-FOXM1 (human) = GFP-FOXM1 (human) (UniProt Q08050); assay: MST; GFP-fused FOXM1 protein as the fluorescent partner, synthesized peptide varied from 0.030 to 1000 µM; PBST (1×PBS 0.01 M, 0.05% Tween-20); 25 °C; Monolith NT.115, LED power 60%, medium MST power
[3] = target: GFP-FOXM1(688-748) (human); assay: as above

Chain of endogenous FOXM1 protein (human (endogenous in 293T and MDA-MB-231)) (Q08050 whole entry, the tested form may be a part): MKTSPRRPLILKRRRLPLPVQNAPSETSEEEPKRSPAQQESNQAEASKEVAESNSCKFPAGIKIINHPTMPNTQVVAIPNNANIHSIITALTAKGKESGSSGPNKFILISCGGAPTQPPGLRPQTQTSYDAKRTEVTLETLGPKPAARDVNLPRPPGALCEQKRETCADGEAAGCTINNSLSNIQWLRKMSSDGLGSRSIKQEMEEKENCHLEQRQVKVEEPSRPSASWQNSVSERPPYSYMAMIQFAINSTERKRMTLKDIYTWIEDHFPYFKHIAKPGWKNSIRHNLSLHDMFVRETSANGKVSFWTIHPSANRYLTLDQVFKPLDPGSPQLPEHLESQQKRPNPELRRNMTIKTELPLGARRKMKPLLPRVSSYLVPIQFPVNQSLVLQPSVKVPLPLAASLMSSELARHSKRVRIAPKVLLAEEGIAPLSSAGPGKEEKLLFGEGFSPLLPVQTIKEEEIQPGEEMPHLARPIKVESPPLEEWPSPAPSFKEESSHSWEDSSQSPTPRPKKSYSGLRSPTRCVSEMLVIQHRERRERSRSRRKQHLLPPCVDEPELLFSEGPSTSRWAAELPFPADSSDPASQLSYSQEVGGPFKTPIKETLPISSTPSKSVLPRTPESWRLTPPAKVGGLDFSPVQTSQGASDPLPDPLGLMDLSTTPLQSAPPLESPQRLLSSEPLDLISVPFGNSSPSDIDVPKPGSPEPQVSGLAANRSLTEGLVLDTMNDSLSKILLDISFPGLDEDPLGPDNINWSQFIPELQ
Chain of GFP-FOXM1 (human) (Q08050 other isoform, or with tags, fused parts or gaps): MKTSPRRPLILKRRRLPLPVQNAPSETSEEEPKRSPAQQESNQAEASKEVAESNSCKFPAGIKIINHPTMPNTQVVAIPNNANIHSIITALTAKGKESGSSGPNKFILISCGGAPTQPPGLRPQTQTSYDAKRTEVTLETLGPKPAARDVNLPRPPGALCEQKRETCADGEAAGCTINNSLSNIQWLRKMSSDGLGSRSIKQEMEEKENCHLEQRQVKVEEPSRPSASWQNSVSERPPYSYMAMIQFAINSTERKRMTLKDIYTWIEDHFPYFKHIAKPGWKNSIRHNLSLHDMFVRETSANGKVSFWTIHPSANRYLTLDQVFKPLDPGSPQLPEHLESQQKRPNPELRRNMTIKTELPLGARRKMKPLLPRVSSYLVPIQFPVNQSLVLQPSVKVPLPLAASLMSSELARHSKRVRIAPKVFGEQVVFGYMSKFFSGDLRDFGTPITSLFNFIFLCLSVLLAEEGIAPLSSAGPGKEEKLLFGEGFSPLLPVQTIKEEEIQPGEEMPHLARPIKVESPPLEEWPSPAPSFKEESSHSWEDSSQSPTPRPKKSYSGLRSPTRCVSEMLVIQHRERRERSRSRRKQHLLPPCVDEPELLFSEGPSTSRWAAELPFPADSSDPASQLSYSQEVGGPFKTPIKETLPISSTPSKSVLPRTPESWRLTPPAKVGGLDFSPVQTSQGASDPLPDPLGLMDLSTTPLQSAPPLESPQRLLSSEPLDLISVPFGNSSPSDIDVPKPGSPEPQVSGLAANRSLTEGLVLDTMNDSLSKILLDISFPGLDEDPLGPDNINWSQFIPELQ

Substance | IC50 of cell viability, MDA-MB-231 cells, 48 h (trypan blue) [1] | IC50 of cell viability, MDA-MB-231 cells, 48 h (trypan blue; Fig. 2C) [2] | Kd (GFP-FOXM1 (human)) | Kd [3]
TAT-106-126 (from UniProt Q08050 106-126) (peptide) | 53.4 µM | 54.3 µM | 7.1 µM | 3.9 µM
TAT-96-116 (from UniProt Q08050 96-116) (peptide) | – | – | – | 2.8 µM
TAT-101-121 (from UniProt Q08050 101-121) (peptide) | – | – | – | 5.5 µM
